# Measured values reported in patent US9458483B2, “Compositions comprising a polypeptide having cellulolytic enhancing activity and a bicyclic compound and uses thereof” (Novozymes, Inc., priority 2010, dated 2016).
# Like-named read-outs stand apart in the source and are kept apart here.
# Legend:
# [1] = tested on: Trichoderma reesei cellulase composition; assay type: biochemical
# Method: (§1) Control saccharification reactions containing equivalent methanol-containing buffer concentrations, 2% and 10% (v/v) methanol, or no methanol, were performed on each 96-well plate. […] All experiments were performed in triplicate, unless otherwise indicated.
# (§2) The filtrates were analyzed for sugar content as described below. […] Data were processed using MICROSOFT EXCEL® software (Microsoft, Richland, Wash., USA), or […]® software (Synergy Software, Reading, Pa., USA).
# Similarly, the effect of each bicyclic compound tested in the absence of GH61 polypeptide was quantified by calculating the ratio of percent conversion for the T. reesei cellulase composition without supplemented GH61 polypeptide having cellulolytic enhancing activity in the presence of each compound to the percent conversion in the absence of each compound:
# In general, the bicyclic compound effect(no GH61) was approximately 1, though the methanol solvent was inhibitory to cellulolysis (Example 3).
# [2] = tested on: Trichoderma reesei cellulase composition; assay type: biochemical; conditions: for GH61 effect: 2% methanol
# Method: as §1, §2
# [formula] where 1.111 represents the mass conversion factor accounting for the hydration of glucose produced from the cellulose polymer. The fractional hydrolysis is defined herein as the conversion expressed as a fraction rather than as a percent (i.e., % conversion/100).
# [formula] […] Thus for saccharification reactions where only the presence of a bicyclic compound differs, a difference in GH61 effect can be attributed to the effect of the bicyclic compound on the cellulolytic enhancing effect of the GH61 polypeptide.
Molecule,effect on saccharification by the T. reesei cellulase composition ([1]; 2% and 10% (v/v) methanol),"bicyclic compound effect(no GH61) ([1]; 2% methanol, 3 days)","bicyclic compound effect(no GH61) ([1]; 2% methanol, 7 days)","bicyclic compound effect(no GH61) ([1]; 10% methanol, 3 days)","bicyclic compound effect(no GH61) ([1]; 10% methanol, 7 days)",GH61 effect ([2]; 3 days of hydrolysis),GH61 effect ([2]; 7 days of hydrolysis),"GH61 effect (Equation 4) ([2]; 10% methanol, 3 days)","percent conversion in the presence of 50% (w/w) T. aurantiacus GH61A polypeptide ([2]; 10% methanol, 3 days of hydrolysis)","percent conversion in the presence of 50% (w/w) T. aurantiacus GH61A polypeptide ([2]; 10% methanol, 7 days of hydrolysis)","percent conversion in the presence of 50% (w/w) T. aurantiacus GH61A polypeptide ([2]; 3 days of hydrolysis, no bicyclic compound, no methanol, averaged over all plates)","GH61 effect (Equation 4) ([2]; 3 days of saccharification, no bicyclic compound, no methanol)","percent conversion in the presence of 50% (w/w) T. aurantiacus GH61A polypeptide ([2]; 7 days of hydrolysis, no bicyclic compound, no methanol, averaged over all plates)","GH61 effect (Equation 4) ([2]; 7 days of saccharification, no bicyclic compound, no methanol)",GH61 effect on AVICEL ([2]; in the absence of bicyclic compounds)
CO [methanol],inhibited saccharification,0.93,0.90,0.43,0.35,–,–,–,–,–,–,–,–,–,–
"T. aurantiacus GH61A polypeptide: GH61A polypeptide having cellulolytic enhancing activity (SEQ ID NO: 14), recombinantly prepared in Aspergillus oryzae JaL250 (protein, listed as Thermoascus aurantiacus) MSFSKIIATAGVLASASLVAGHGFVQNIVIDGKYYGGYLVNQYPYMSNPPEVIAWSTTATDLGFVDGTGYQTPDIICHRGAKPGALTAPVSPGGTVELQWTPWPDSHHGPVINYLAPCNGDCSTVDKTQLEFFKIAESGLINDDNPPGIWASDNLIAANNSWTVTIPTTIAPGNYVLRHEIIALHSAQNQDGAQNYPQCINLQVTGGGSDNPAGTLGTALYHDTDPGILINIYQKLSSYIIPGPPLYTG",–,–,–,–,–,0.98±0.078,1.01±0.06,1.00±0.068,11.8±0.379%,15.1±0.388%,26.2±1.17%,0.98±0.064,41.4±1.67%,0.99±0.051,1
